# T1: recombinant human DLL3 extracellular domain (R&D Systems, Cat #9749-DL) (human, UniProt Q9NYJ7 27-492)
# T1 construct: Bought protein; also called soluble recombinant human DLL3 extracellular domain
# T1 sequence: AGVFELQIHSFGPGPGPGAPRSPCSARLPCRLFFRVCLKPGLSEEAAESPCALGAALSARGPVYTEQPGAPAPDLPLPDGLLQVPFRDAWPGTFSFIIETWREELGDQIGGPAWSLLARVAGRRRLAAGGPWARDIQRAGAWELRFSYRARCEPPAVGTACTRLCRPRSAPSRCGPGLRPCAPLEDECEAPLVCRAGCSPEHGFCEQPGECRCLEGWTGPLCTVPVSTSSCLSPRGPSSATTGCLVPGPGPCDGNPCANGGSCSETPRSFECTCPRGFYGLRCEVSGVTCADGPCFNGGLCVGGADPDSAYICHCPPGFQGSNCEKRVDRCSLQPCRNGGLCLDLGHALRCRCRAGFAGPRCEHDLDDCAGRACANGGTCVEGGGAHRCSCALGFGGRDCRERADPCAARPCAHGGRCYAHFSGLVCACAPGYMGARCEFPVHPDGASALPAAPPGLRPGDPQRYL
# T2: DLL3 on NCI-H82 cells (human, UniProt Q9NYJ7 27-618)
# T2 construct: Endogenous DLL3 of NCI-H82 (DLL3+) cells; also called cell surface DLL3
# T2 sequence: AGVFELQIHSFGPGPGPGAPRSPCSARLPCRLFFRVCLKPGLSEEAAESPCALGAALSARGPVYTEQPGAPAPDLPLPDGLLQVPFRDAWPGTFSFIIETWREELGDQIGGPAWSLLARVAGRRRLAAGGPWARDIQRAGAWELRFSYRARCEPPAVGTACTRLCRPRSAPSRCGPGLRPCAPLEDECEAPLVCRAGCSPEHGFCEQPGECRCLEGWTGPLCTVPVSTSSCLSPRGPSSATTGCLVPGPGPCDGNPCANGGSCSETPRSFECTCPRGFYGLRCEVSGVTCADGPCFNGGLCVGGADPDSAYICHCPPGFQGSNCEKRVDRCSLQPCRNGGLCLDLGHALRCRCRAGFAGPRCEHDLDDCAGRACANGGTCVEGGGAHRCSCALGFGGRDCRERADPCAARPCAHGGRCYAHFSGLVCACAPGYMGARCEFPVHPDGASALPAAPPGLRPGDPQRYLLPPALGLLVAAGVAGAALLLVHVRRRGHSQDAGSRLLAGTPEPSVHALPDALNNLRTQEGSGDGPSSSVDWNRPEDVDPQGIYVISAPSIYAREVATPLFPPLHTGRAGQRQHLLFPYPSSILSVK
# Molecular target: T1, recombinant human DLL3 extracellular …
# Assay: phage ELISA after three rounds of panning on biotinylated recombinant human DLL3
# Text: Multiple ABPC display systems, including phage display systems and those with ABPCs based on VH domains, have been described in the literature and can be used as a template for selection of pH engineered ABPCs using panning (Scroter C (2015) “A generic approach to engineer antibody pH switches using combinatorial histidine scanning libraries and yeast display” mAbs, 7:1, 138-151; Bonvin P (2015) “De novo isolation of antibodies with pH-dependent binding properties” mAbs, 7:2, 294-302; Traxlmayr P (2014) “Construction of pH-sensitive Her2-binding IgG1-Fc by directed evolution” Biotechnology Journal 9(8): 1013-1022; Gera N (2012) “Design of pH sensitive binding proteins from the hyperthermophilic Sso7 d scaffold” PLOS ONE 7 (11) e48928). pH engineered anti-DLL3 variants were selected by screening a proprietary humanized VH domain phage display library. Humanized VH library was screened against soluble recombinant human DLL3 extracellular domain (R&D Systems, Cat #9749-DL) in three rounds of selections with successively lower concentrations to isolate pH dependent anti-DLL3 VH domains. Briefly, the library was depleted for non-specific binders by incubating with Dynal M-280 streptavidin beads, bound antibodies were separated via a magnet and supernatant was collected for positive selection with human DLL3. Depleted library was further incubated with biotinylated recombinant human DLL3 at pH 7.4 for 1-3 hours at room temperature. Dynal streptavidin beads were added to the mixture to capture human DLL3 bound antibodies and washed 3× with a pH 7.4 buffer. Bound antibodies were eluted from beads using 0.1 M glycine pH 2.7 which was then neutralized with 1M Tris pH 7.4.
row,binding result,Binder
1,binds,"SEQ ID NO 612 (other, also called Humanized VH variant #7) VH: EVQLVESGGGLVQPGGSLRLSCAASGFNISSSDIGWVRRAPGKGEELVARIYPTNGYTRYADSVKGRFTISADTSKNTAYLQMNSLRAEDTAVYYCARYYYYDDDGYYYEHAIDYSGQGTLVTVSS"
2,binds,"SEQ ID NO 606 (other, also called Humanized VH variant #1) VH: EVQLVESGGGLVQPGGSLRLSCAASGFNISYYYIGWVRRAPGKGEELVARIYPTNGYTRYADSVKGRFTISADTSKNTAYLQMNSLRAEDTAVYYCARAYGDSDHYSEAIDYSGQGTLVTVSS"
3,binds,"SEQ ID NO 616 (other, also called Humanized VH variant #11) VH: EVQLVESGGGLVQPGGSLRLSCAASGFNIHYEEIGWVRRAPGKGEELVARIYPTNGYTRYADSVKGRFTISADTSKNTAYLQMNSLRAEDTAVYYCARYSYYYHYGGGMDYSGQGTLVTVSS"
4,binds,"SEQ ID NO 613 (other, also called Humanized VH variant #8) VH: EVQLVESGGGLVQPGGSLRLSCAASGFNIEYESIGWVRRAPGKGEELVARIYPTNGYTRYADSVKGRFTISADTSKNTAYLQMNSLRAEDTAVYYCARSEYSHYSGSHHYYALDYSGQGTLVTVSS"
5,binds,"SEQ ID NO 614 (other, also called Humanized VH variant #9) VH: EVQLVESGGGLVQPGGSLRLSCAASGFNISEHSIGWVRRAPGKGEELVARIYPTNGYTRYADSVKGRFTISADTSKNTAYLQMNSLRAEDTAVYYCARSYYHGYSHGHHYYAIDYSGQGTLVTVSS"
6,binds,"SEQ ID NO 609 (other, also called Humanized VH variant #4) VH: EVQLVESGGGLVQPGGSLRLSCAASGFNIYSYSIGWVRRAPGKGEELVARIYPTNGYTRYADSVKGRFTISADTSKNTAYLQMNSLRAEDTAVYYCAREHYHGYYDGAHYYALDYSGQGTLVTVSS"
7,binds,"SEQ ID NO 611 (other, also called Humanized VH variant #6) VH: EVQLVESGGGLVQPGGSLRLSCAASGFNIEHYSIGWVRRAPGKGEELVARIYPTNGYTRYADSVKGRFTISADTSKNTAYLQMNSLRAEDTAVYYCARHHYYGYHSGYHHYAIDYSGQGTLVTVSS"
8,binds,"SEQ ID NO 607 (other, also called Humanized VH variant #2) VH: EVQLVESGGGLVQPGGSLRLSCAASGFNIYSESIGWVRRAPGKGEELVARIYPTNGYTRYADSVKGRFTISADTSKNTAYLQMNSLRAEDTAVYYCARSYYSHYDGHYHYYGLDYSGQGTLVTVSS"
9,binds,"SEQ ID NO 620 (other, also called Humanized VH variant #15) VH: EVQLVESGGGLVQPGGSLRLSCAASGFNIYDHSIGWVRRAPGKGEELVARIYPTNGYTRYADSVKGRFTISADTSKNTAYLQMNSLRAEDTAVYYCARSSYSGYYGSHHYYALDYSGQGTLVTVSS"
10,binds,"SEQ ID NO 619 (other, also called Humanized VH variant #14) VH: EVQLVESGGGLVQPGGSLRLSCAASGFNISHYSIGWVRHAPGKGEELVARIYPTNGYTRYADSVKGRFTISADTSKNTAYLQMNSLRAEDTAVYYCARHHYSHYDGHSHYYGLDYSGQGTLVTVSS"
11,binds,"SEQ ID NO 618 (other, also called Humanized VH variant #13) VH: EVQLVESGGGLVQPGGSLRLSCAASGFNISEESIGWVRRAPGKGEELVARIYPTNGYTRYADSVKGRFTISADTSKNTAYLQMNSLRAEDTAVYYCARSYYAHYSAGYYYYALDYSGQGTLVTVSS"
12,binds,"SEQ ID NO 610 (other, also called Humanized VH variant #5) VH: EVQLVESGGGLVQPGGSLRLSCAASGFNIEYYSIGWVRRAPGKGEELVARIYPTNGYTRYADSVKGRFTISADTSKNTAYLQMNSLRAEDTAVYYCAREYYSYHDEYEYDYALDYSGQGTLVTVSS"
13,binds,"SEQ ID NO 615 (other, also called Humanized VH variant #10) VH: EVQLVESGGGLVQPGGSLRLSCAASGFNIHSYYIGWVRRAPGKGEELVARIYPTNGYTRYADSVKGRFTISADTSKNTAYLQMNSLRAEDTAVYYCARGYYGHEYDYHYDYYGGGFDYSGQGTLVTVSS"
14,binds,"SEQ ID NO 608 (other, also called Humanized VH variant #3) VH: EVQLVESGGGLVQPGGSLRLSCAASGFNISYYSIGWVRRAPGKGEELVARIYPTNGYTRYADSVKGRFTISADTSKNTAYLQMNSLRAEDTAVYYCARYHHSEYSDYYGYYSEYGFDYSGQGTLVTVRS"

# Molecular target: T2, DLL3 on NCI-H82 cells
# Assay: flow cytometry titration on NCI-H82 cells, Alexa Fluor 488 anti-human IgG; Example 37 calls the fitted value a dissociation constant KD
# Description: FIGS. 20a-c: Characterization of binding affinity for anti-DLL3 mAbs. Anti-DLL3 mAbs were assayed for their binding to NCI-H82 cells.
# Binding affinity of selected anti-DLL3 pH engineered antibody variants from Examples 9-13 were measured on NCI-H82 cells. 100,000 cells per well were resuspended in 900 μL FC buffer in a 96 well deep well plate. Rovalpituzumab and pH engineered antibody variants were serially diluted at a 1:3 dilution. 100 μL of diluted antibody was added to each well with final concentration ranging from […] and incubated for 2 hours at 4° C. Post incubation, the cells were spun at 2000 rpm for 2 min and supernatant was discarded. Cells were washed twice with 500 μL of ice-cold FC buffer and resuspended with 100 μL of FC buffer. The cells were then transferred from the deep well plate to 96 well round bottom plate, spun at 2000 rpm for 2 min and incubated with 100 μL of 10 μg/mL Alexa Fluor 488 conjugated goat anti-human IgG secondary antibody (ThermoFisher Scientific, A11013) for 30 min. Post incubation, cells were washed with FC buffer and resuspended in 100 μL of FC buffer to read on a BD Accuri C6 flow cytometer. Binding affinity was measured as a dissociation constant KD by GraphPad Prism assuming Michaelis-Menten binding kinetics. […]
row,KD,Binder
1,8 pM,"rovalpituzumab (antibody, V domains shown, IgG expressed in Expi293; the entries called heavy and light chain are variable domains; also called MYT0638) VH: QVQLVQSGAEVKKPGASVKVSCKASGYTFTNYGMNWVRQAPGQGLEWMGWINTYTGEPTYADDFKGRVTMTTDTSTSTAYMELRSLRSDDTAVYYCARIGDSSPSDYWGQGTLVTVSS VL: EIVMTQSPATLSVSPGERATLSCKASQSVSNDVVWYQQKPGQAPRLLIYYASNRYTGIPARFSGSGSGTEFTLTISSLQSEDFAVYYCQQDYTSPWTFGQGTKLEIK"

# Reference: patent publication US20220313845A1 (MYTHIC THERAPEUTICS, published 2022)
